Data taken from paper PMC10886158, “A New Phenolic Acid Decarboxylase from the Brown-Rot Fungus Neolentinus lepideus Natively Decarboxylates Biosourced Sinapic Acid into Canolol, a Bioactive Phenolic Compound” (Bioengineering, 2024).

Key:
[1] = biological target: native phenolic acid decarboxylase from Neolentinus lepideus strain BRFM15 (NlePAD) (Neolentinus lepideus (strain BRFM15)); assay: SEC; purified native NlePAD on a Superdex 75 Prep Grade column in buffer A (20 mM sodium phosphate pH 7.5, 0.4 M saccharose, 2 mM DTT); calibrated with BSA, alpha-amylase, ovalbumin, casein and lysozyme; native mass 43-45 kDa compared with the 22 kDa band in SDS-PAGE
purified protein = substrate: COc1cc(/C=C/C(=O)O)ccc1O; assay: purified protein; settings: pH 6, 50 mM sodium phosphate, 45 °C, 0.5-10 mM substrate, 30 min, apparent KM
[2] = substrate: COc1cc(/C=C/C(=O)O)cc(OC)c1O; assay: HPLC of canolol formed, Lineweaver-Burk plot; format: biochemical, Neolentinus lepideus; settings: pH 6, 50 mM sodium phosphate, 37 °C, 0.5-10 mM substrate, 30 min, apparent KM

| stoichiometry N [1] | Molecule | Km (purified protein) [mM] | kcat/Km (purified protein) [M⁻¹ s⁻¹] | Km [2] [mM] | kcat/Km [2] [M⁻¹ s⁻¹] |
| --- | --- | --- | --- | --- | --- |
| 2 | native phenolic acid decarboxylase from Neolentinus lepideus strain BRFM15 (NlePAD) (enzyme) |  |  |  |  |
|  | NlePAD (Neolentinus lepideus HHB14362 ss-1) (protein, homodimer 2 x 22 kDa (SEC 43-45 kDa)) MSHEGATSEEFKQIEGKRFKYTYGLGWTYEMYFRSLTRCVYRILSGPLAGRVNFQHAHYQKIRDNVWQCSWLEETGTVVSMVVDFDQQTVKTFATFSRGHWDLPDQAKGWKRNPEDMARWRTLAQKGKDQADKHVLVEHAKMSELTSGQGDLPDIDDSWETM | 2.6 | 14800 | 3.9 | 1600 |
